Measurements taken from the supplement of paper PMC7877785.
± gives the uncertainty stated by the source.

Experiment: self-splicing fitness, log relative to wild type (ln ratio); higher = more splicing; Tetrahymena group I intron in knt gene, E. coli kanamycin selection, DiMSum; sequences stand for … in CUCUCU…GGAGGGAAAAGUUAUCAGGCAUGCACCUGGUAGCUAGUCUUUAAACCAAUAGAUUGCAUCGGUUUAAAAGGCAAGACCGUCAAAUUGCGGGAAAGGGGUCAACAGCCGUUCAGUACCAAGUCUCAGGGGAAACUUUGAGAUGGCCUUGCAAAGGGUAUGGUAAUAAGCUGACGGACAUGGUCCUAACCACGCAGCCAAGUCCUAAGUCAACAGAUCUUCUGUUGAUAUGGAUGCAGUUCACAGACUAAAUGUCGGUCGGGGAAGAUGUAUUCUUCUCAUAAGAUAUAGUCGGACCUCUCCUUAAUGGGAGCUAGCGGAUGAAGUGAUGCAACACUGGAGCCGCUGGGAACUAAUUUGUAUGCGAAAGUAUAUUGAUUAGUUUUGGAGUACUCGUGGUCG
How it was run: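 A randomised library covering all eight P1ex-region intron nucleotides was built with the intron in the knt kanamycin-resistance gene on pET-22b(+) and held in E. coli BL21(DE3). Cells were grown overnight at 37°C or 30°C on LB agar, with or without 25 μg/mL kanamycin, plus 100 μg/mL carbenicillin, 50 μM IPTG and 0.2% rhamnose, and pooled colonies were amplicon-sequenced on an Illumina HiSeq 2500. DiMSum fitness is the error-weighted combination of wild-type-normalised replicate fold changes, kanamycin versus none.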

| Sequence | self-splicing fitness (ln) (30 °C) | self-splicing fitness (ln) (37 °C) |
| --- | --- | --- |
| GCCGAGCAAUAUUACGAUUU | -2.04 ± 0.14 | -0.375 ± 0.14 |
| GCCGAGCAAUAUUACGCCAU | -2.88 ± 0.23 | -2.5 ± 0.38 |
| GCCGAGCAAUAUUACGCCGG | -3.21 ± 0.3 | -2.08 ± 0.38 |
| GCCGAGCAAUAUUACGCGAA | -1.84 ± 0.12 | -1.34 ± 0.17 |
| GCCGAGCAAUAUUACGCUCC | -0.576 ± 0.44 |  |
| GCCGAGCAAUAUUACGCUUC | -2.53 ± 0.18 | -1.65 ± 0.25 |
| GCCGAGCAAUAUUACGGACG | -2.44 ± 0.18 | -0.841 ± 0.2 |
| GCCGAGCAAUAUUACGGCCU | -2.54 ± 0.42 | -1.56 ± 0.35 |
| GCCGAGCAAUAUUACGGCUC |  | -1.49 ± 0.46 |
| GCCGAGCAAUAUUACGGGAU | -2.03 ± 0.11 | -0.76 ± 0.13 |
| GCCGAGCAAUAUUACGGGUC | -3.68 ± 0.16 | -2.77 ± 0.11 |
| GCCGAGCAAUAUUACGUAAC | -2.89 ± 0.19 | -0.977 ± 0.2 |
| GCCGAGCAAUAUUACGUCUA | -3.15 ± 0.29 | -0.742 ± 0.15 |
| GCCGAGCAAUAUUACGUUAG | -3.58 ± 0.17 | -2.65 ± 0.19 |
| GCCUAGCAAUAUUACGACUC | -0.376 ± 0.14 | 0.0998 ± 0.17 |
| GCCUAGCAAUAUUACGAGAG | -3.76 ± 0.32 | -1.44 ± 0.12 |
| GCCUAGCAAUAUUACGAUGA | -2.48 ± 0.16 | -1.4 ± 0.14 |
| GCCUAGCAAUAUUACGCCGA | -0.66 ± 0.49 |  |
| GCCUAGCAAUAUUACGCGCC | -2.42 ± 0.34 | -1.39 ± 0.31 |
| GCCUAGCAAUAUUACGCUGG | -2.92 ± 0.17 | -3.83 ± 0.42 |
| GCCUAGCAAUAUUACGGAAG | -2.96 ± 0.17 | -1.44 ± 0.17 |
| GCCUAGCAAUAUUACGGGAG | -0.724 ± 0.094 | -0.391 ± 0.094 |
| GCCUAGCAAUAUUACGUGAA | -0.836 ± 0.073 | 0.346 ± 0.077 |
| GCGAAGCAAUAUUACGACAC | -0.709 ± 0.21 | 0.892 ± 0.34 |
| GCGAAGCAAUAUUACGACUA | 0.115 ± 0.22 | -1.94 ± 0.2 |
| GCGAAGCAAUAUUACGAGUG | -1.09 ± 0.1 | -2.13 ± 0.12 |

| Sequence | self-splicing fitness (ln) (30 °C) | self-splicing fitness (ln) (37 °C) |
| --- | --- | --- |
| GCGAAGCAAUAUUACGAUAG | -2.35 ± 0.14 | -1.51 ± 0.17 |
| GCGAAGCAAUAUUACGAUUA | -1.52 ± 0.3 | -0.0699 ± 0.23 |
| GCGAAGCAAUAUUACGCCCC | -2.37 ± 0.46 |  |
| GCGAAGCAAUAUUACGCGUG | -1.54 ± 0.12 | -1.7 ± 0.13 |
| GCGAAGCAAUAUUACGCUCG | -2.95 ± 0.29 | -2.12 ± 0.27 |
| GCGAAGCAAUAUUACGCUGA | -0.605 ± 0.24 | -1.5 ± 0.34 |
| GCGAAGCAAUAUUACGGAAA | -3.34 ± 0.36 | -1.57 ± 0.27 |
| GCGAAGCAAUAUUACGGCAU | -1.25 ± 0.099 | -0.00655 ± 0.089 |
| GCGAAGCAAUAUUACGGCCU | -1.4 ± 0.12 | 0.334 ± 0.16 |
| GCGAAGCAAUAUUACGGCUC | -1.78 ± 0.17 | -2.01 ± 0.25 |
| GCGAAGCAAUAUUACGGCUU | -2.39 ± 0.36 |  |
| GCGAAGCAAUAUUACGGGUA | -3.04 ± 0.23 | -0.904 ± 0.17 |
| GCGAAGCAAUAUUACGGUAG | -4.07 ± 0.42 | -2.77 ± 0.26 |
| GCGAAGCAAUAUUACGGUCC | -3.6 ± 0.25 | -2.27 ± 0.31 |
| GCGAAGCAAUAUUACGGUGG | -4.24 ± 0.23 | -3.08 ± 0.27 |
| GCGAAGCAAUAUUACGUCCG | -1.24 ± 0.14 | -0.577 ± 0.2 |
| GCGAAGCAAUAUUACGUGAG | -1.89 ± 0.091 | -2.01 ± 0.1 |
| GCGAAGCAAUAUUACGUGCU | -2.63 ± 0.16 | -2.75 ± 0.2 |
| GCGAAGCAAUAUUACGUUUG | -2.87 ± 0.14 | -2.68 ± 0.23 |
| GCGCAGCAAUAUUACGACCU | 0.0686 ± 0.071 | 0.0313 ± 0.084 |
| GCGCAGCAAUAUUACGACUU | -0.0557 ± 0.087 | 0.099 ± 0.093 |
| GCGCAGCAAUAUUACGAGGA | -1.89 ± 0.3 | -0.618 ± 0.16 |
| GCGCAGCAAUAUUACGAGGC | -2.7 ± 0.35 | -1.29 ± 0.24 |
| GCGCAGCAAUAUUACGAGGG | -2.78 ± 0.09 | -1.84 ± 0.098 |
| GCGCAGCAAUAUUACGAGUC | -1.6 ± 0.13 | -1.36 ± 0.24 |
| GCGCAGCAAUAUUACGAUGA | -0.132 ± 0.099 | -0.33 ± 0.092 |

| Sequence | self-splicing fitness (ln) (30 °C) | self-splicing fitness (ln) (37 °C) |
| --- | --- | --- |
| GCGCAGCAAUAUUACGCACA | -1.5 ± 0.12 | -0.062 ± 0.11 |
| GCGCAGCAAUAUUACGCCCA | 0.169 ± 0.24 | -0.637 ± 0.33 |
| GCGCAGCAAUAUUACGCUAC | -1.82 ± 0.17 | -1.71 ± 0.3 |
| GCGCAGCAAUAUUACGGAAA | -1.97 ± 0.23 | -0.698 ± 0.2 |
| GCGCAGCAAUAUUACGGAUU | -0.79 ± 0.039 | -0.328 ± 0.056 |
| GCGCAGCAAUAUUACGGGCU | -3.6 ± 0.23 | -3.02 ± 0.27 |
| GCGCAGCAAUAUUACGGGGG | -2.2 ± 0.12 | -1.4 ± 0.12 |
| GCGCAGCAAUAUUACGGGGU | -2.94 ± 0.096 | -2.31 ± 0.13 |
| GCGCAGCAAUAUUACGGUAA | -1.55 ± 0.11 | 0.236 ± 0.11 |
| GCGCAGCAAUAUUACGGUUC | -0.737 ± 0.077 | 0.0559 ± 0.082 |
| GCGCAGCAAUAUUACGGUUU | -0.323 ± 0.048 | -0.167 ± 0.057 |
| GCGCAGCAAUAUUACGUCGA | -0.665 ± 0.09 | 0.801 ± 0.13 |
| GCGCAGCAAUAUUACGUGAA | 0.0716 ± 0.076 | 0.149 ± 0.074 |
| GCGCAGCAAUAUUACGUGAG | -0.213 ± 0.054 | 0.445 ± 0.082 |
| GCGCAGCAAUAUUACGUGCA | -2.09 ± 0.096 | -0.706 ± 0.08 |
| GCGGAGCAAUAUUACGACAU | -1.38 ± 0.016 | -0.573 ± 0.035 |
| GCGGAGCAAUAUUACGACCU | -0.927 ± 0.2 | -1.02 ± 0.19 |
| GCGGAGCAAUAUUACGAGUG | -2.86 ± 0.34 | -2.71 ± 0.48 |
| GCGGAGCAAUAUUACGCUAU | -3.16 ± 0.36 | -2.53 ± 0.49 |
| GCGGAGCAAUAUUACGCUGG |  | -2.1 ± 0.4 |
| GCGGAGCAAUAUUACGGCGU | -3.49 ± 0.33 | -2.08 ± 0.31 |
| GCGGAGCAAUAUUACGUCGG | -2.62 ± 0.12 | -1.78 ± 0.17 |
| GCGGAGCAAUAUUACGUUUC | -2.57 ± 0.39 |  |
| GCGUAGCAAUAUUACGAACG | -2.48 ± 0.29 | -1.79 ± 0.27 |
| GCGUAGCAAUAUUACGAUAA | -0.962 ± 0.21 | -0.707 ± 0.24 |
| GCGUAGCAAUAUUACGAUUC | -0.141 ± 0.098 | -0.0224 ± 0.11 |
